According to the supplement of paper PMC11246515:
± gives the standard deviation of the averaged measurements.

Assay: total protein half-life in vivo (active degradation + dilution); higher = more stable protein
[1] = E. coli NCM3722 delta-clpP delta-lon delta-hslV, growth: N-lim chemostat, doubling time 6 h
[2] = E. coli NCM3722 delta-clpP, growth: N-lim chemostat, doubling time 6 h
[3] = E. coli NCM3722 delta-hslV, growth: N-lim chemostat, doubling time 6 h
[4] = E. coli NCM3722 delta-lon, growth: N-lim chemostat, doubling time 6 h
[5] = E. coli NCM3722 delta-smpB, growth: N-lim chemostat, doubling time 6 h
[6] = wild type E. coli NCM3722, growth: C-lim chemostat, doubling time 3 h
[7] = wild type E. coli NCM3722, growth: C-lim chemostat, doubling time 6 h
[8] = wild type E. coli NCM3722, growth: C-lim chemostat, doubling time 12 h
[9] = wild type E. coli NCM3722, growth: N-lim chemostat, doubling time 6 h
[10] = wild type E. coli NCM3722, growth: N-lim chemostat, doubling time 12 h
[11] = wild type E. coli NCM3722, growth: P-lim chemostat, doubling time 12 h
[12] = wild type E. coli NCM3722, growth: P-lim chemostat, doubling time 6 h

| Sequence | total protein half-life in vivo [1] | total protein half-life in vivo [2] | total protein half-life in vivo [3] | total protein half-life in vivo [4] | total protein half-life in vivo [5] | total protein half-life in vivo [6] | total protein half-life in vivo [7] | total protein half-life in vivo [8] | total protein half-life in vivo [9] | total protein half-life in vivo [10] | total protein half-life in vivo [11] | total protein half-life in vivo [12] |
| --- | --- | --- | --- | --- | --- | --- | --- | --- | --- | --- | --- | --- |
| MNNDVFPNKFKAALAAKQVQIGCWSALSNPISTEVLGLAGFDWLVLDGEHAPNDISTFIPQLMALKGSASAPVVRVPTNEPVIIKRLLDIGFYNFLIPFVETKEEAELAVASTRYPPEGIRGVSVSHRANMFGTVADYFAQSNKNITILVQIESQQGVDNVDAIAATEGVDGIFVGPSDLAAALGHLGNASHPDVQKAIQHIFNRASAHGKPSGILAPVEADARRYLEWGATFVAVGSDLGVFRSATQKLADTFKK | 4.58 ± 0.62 h | 4.02 ± 1.4 h | 2.99 ± 0.14 h | 3.19 h | 3.51 ± 0.42 h | 3.2103 ± 7.8e-05 h | 5.123 ± 0.023 h | 9.79 ± 0.92 h | 3.355 ± 0.022 h | 7.58 h | 11.6 ± 0.72 h |  |
| MNNIQIRNYQPGDFQQLCAIFIRAVTMTASQHYSPQQISAWAQIDESRWKEKLAKSQVWVAIINAQPVGFISRIEHYIDMLFVDPEYTRRGVASALLKPLIKSESELTVDASITAKPFFERYGFQTVKQQRVECRGAWFTNFYMRYKPQH | 4.81 h | 3.71 ± 0.28 h | 3.82 h |  | 2.9 h |  | > 8 h |  | > 8 h |  | 9.48 ± 0.24 h |  |
| MNNIQLAHGSGGQAMQQLINSLFMEAFANPWLAEQEDQARLDLAQLVAEGDRLAFSTDSYVIDPLFFPGGNIGKLAICGTANDVAVSGAIPRYLSCGFILEEGLPMETLKAVVTSMAETARAAGIAIVTGDTKVVQRGAVDKLFINTAGMGAIPANIHWGAQTLTAGDVLLVSGTLGDHGATILNLREQLGLDGELVSDCAVLTPLIQTLRDIPGVKALRDATRGGVNAVVHEFAAACGCGIELSEAALPVKPAVRGVCELLGLDALNFANEGKLVIAVERNAAEQVLAALHSHPLGKDAALIGEVVERKGVRLAGLYGVKRTLDLPHAEPLPRIC | 3.91 ± 0.43 h | 3.16 ± 0.4 h | 3.27 ± 0.042 h | 3.76 ± 0.14 h | 3.59 ± 0.38 h | 2.96 ± 0.3 h |  | 9.14 ± 0.81 h | 3.28 ± 0.28 h | 4.8 ± 0.18 h | 9.482 ± 0.012 h | 4.98 ± 0.13 h |
| MNNPAMTIKGEQAKKQLIAAALAQFGEYGMNATTREIAAQAGQNIAAITYYFGSKEDLYLACAQWIADFIGEQFRPHAEEAERLFAQPQPDRAAIRELILRACRNMIKLLTQDDTVNLSKFISREQLSPTAAYHLVHEQVISPLHSHLTRLIAAWTGCDANDTRMILHTHALIGEILAFRLGKETILLRTGWTAFDEEKTELINQTVTCHIDLILQGLSQRSL [P0ACU0] | 5.84 ± 0.3 h | 5.34 ± 0.68 h | 4.74 ± 0.24 h |  | 4.47 ± 0.15 h | 2.49 ± 0.42 h | 5.25 ± 0.066 h |  | 4.76 ± 0.33 h | 7.67 ± 0.31 h | 10.4 ± 0.78 h | 4.47 ± 0.36 h |
| MNNREKEILAILRRNPLIQQNEIADMLQISRSRVAAHIMDLMRKGRIKGKGYILTEQEYCVVVGTINMDIRGMADIRYPQSASHPGTIHCSAGGVGRNIAHNLALLGRDVHLLSVIGDDFYGEMLLEETRRAGVNVSGCVRLHGQSTSTYLAIANRDDQTVLAINDTHLLEQLTPQLLNGSRDLLRHAGVVLADCNLTAEALEWVFTLADEIPVFVDTVSEFKAGKIKHWLAHIHTLKPTLPELEILWGQAITSDADRNTAVNALHQQGVQQLFVYLPDESVYCSEKDGEQFLLTAPAHTTVDSFGADDGFMAGLVYSFLEGYSFRDSARFAVACAAISRASGSLNNPTLSADNALSLVPMV | 5.83 ± 0.3 h |  |  |  |  |  |  |  |  |  |  |  |
| MNNSEGLKSFQQSLADLPQWVSERLLQQINQLTNYEPVIGIMGKTGVGKSSLCNALFAGDISPVSDVAACTREPLRFRLQVGDRYITLMDLPGVGESGARDTEYAALYREQLPRLDLVLWLIKADDRALTVDEHFYHQVIGEVYRHKVLFVISQSDKAEPTSGGGQLSTAQKQNISRKICLLHELFQPVHPVCAVSVRLQWGLKVMAERMIKCLPREATSPVVSQLHPSFRTTVVREQARSDFGETVGAVLDSISAFPLIPAPVRAVIQAVRTTVVSVARAVWDFFF |  |  |  |  | 3.51 h |  |  |  |  |  | 6.63 h |  |
| MNPAVDNEFQQWLSQINQVCGNFTGRLLTERYTGVLDTHFAKGLKLSTVTTSGVNLSRTWQEVKGSDDAWFYTVFQLSGQAIMEQDERQVQIGAGDITLLDASRPCSLYWQESSKQISLLLPRTLLEQYFPHQKPICAERLDADLPMVQLSHRLLQESMNNPALSETESEAALQAMVCLLRPVLHQRESVQPRRERQFQKVVTLIDDNIREEILRPEWIAGETGMSVRSLYRMFADKGLVVAQYIRNRRLDFCADAIRHAADDEKLAGIGFHWGFSDQSHFSTVFKQRFGMTPGEYRRKFR | 6.1 ± 0.083 h |  |  | 1.98 h |  | 0.364 ± 0.09 h | 0.661 ± 0.089 h | 0.65 h |  |  |  |  |
| MNPLKAGDIAPKFSLPDQDGEQVNLTDFQGQRVLVYFYPKAMTPGCTVQACGLRDNMDELKKAGVDVLGISTDKPEKLSRFAEKELLNFTLLSDEDHQVCEQFGVWGEKSFMGKTYDGIHRISFLIDADGKIEHVFDDFKTSNHHDVVLNWLKEHA [P0AE52] | 5.42 ± 0.21 h | 5.26 ± 0.76 h | 4.92 ± 0.074 h | 6.45 ± 1.5 h | 4.25 ± 0.079 h | 2.85 ± 0.64 h | 5.36 ± 0.065 h | 7.64 ± 0.72 h | 4.08 ± 0.36 h | 7.49 ± 0.41 h | 11 ± 0.55 h | 4.38 ± 0.081 h |
| MNPTRYARICEMLARRQPDLTVCMEQVHKPHNVSAIIRTADAVGVHEVHAVWPGSRMRTMASAAAGSNSWVQVKTHRTIGDAVAHLKGQGMQILATHLSDNAVDFREIDYTRPTCILMGQEKTGITQEALALADQDIIIPMIGMVQSLNVSVASALILYEAQRQRQNAGMYLRENSMLPEAEQQRLLFEGGYPVLAKVAKRKGLPYPHVNQQGEIEADADWWATMQAAG [P0AGJ2] |  | 5.55 h | 5.14 ± 0.28 h | 5.86 h | 4.84 ± 0.18 h | 2.85 ± 0.62 h | 5.7 ± 0.66 h | 10.7 ± 1.5 h | 5.5 ± 0.66 h | 10 ± 0.54 h | 12.5 ± 0.089 h | 5.8 ± 0.23 h |
